Reference: US20140057857A1 (RESEARCH FOUNDATION FOR THE STATE UNIVERSITY OF NEW YORK, published 2014)
Each block holds one binder with its values, some of them ahead of it. Numbered stars: 1 amine (or outer) side, 2 acyl side, 3 side chain; on linkers, the order of the positions; unused ones are H or OH. Bridge positions count the residues as written; N and C are the ends. Square brackets hold non-standard residues; d marks the D form. Ends that are not written are not given here. CH2(3,3'-bipyridine-6,6')CH2 = c1cc(C[*:1])ncc1-c1ccc(C[*:2])nc1; Biphenyl(4,4'-CH2)2 = c1cc(-c2ccc(C[*:2])cc2)ccc1C[*:1]

Tests used:
[1] = target: GST-Mcl-1; assay: competitive FP assay, against the parent linear peptide
[2] = target: GST-Mcl-1; assay: ELISA (format not described; target taken to be Mcl-1)
[3] = target: GST-Mcl-1; assay: competitive FP assay: displacement of fluorescein-labeled Bak from GST-Mcl-1
[4] = target: GST-Mcl-1; assay: ELISA; the upper end is tied to 5b by Table 3 (25 nM against 340 nM)
[5] = target: T1, GST-MDM2 containing full-length human MDM2 (human, UniProt Q00987 1-491); assay: competition ELISA: peptide inhibits GST-MDM2 binding to coated His6-p53
T1 construct: mature; 'mature' stands for full-length; not shown: GST tag

[6] = target: T2, GST-MDMX containing full-length human MDMX (human, UniProt O15151 1-490); assay: competition ELISA: peptide inhibits GST-MDMX binding to coated His6-p53
T2 construct: mature; MDMX', expressed in E. coli as a GST fusion; 'mature' stands for full-length; not shown: GST tag
T2 sequence (looked up): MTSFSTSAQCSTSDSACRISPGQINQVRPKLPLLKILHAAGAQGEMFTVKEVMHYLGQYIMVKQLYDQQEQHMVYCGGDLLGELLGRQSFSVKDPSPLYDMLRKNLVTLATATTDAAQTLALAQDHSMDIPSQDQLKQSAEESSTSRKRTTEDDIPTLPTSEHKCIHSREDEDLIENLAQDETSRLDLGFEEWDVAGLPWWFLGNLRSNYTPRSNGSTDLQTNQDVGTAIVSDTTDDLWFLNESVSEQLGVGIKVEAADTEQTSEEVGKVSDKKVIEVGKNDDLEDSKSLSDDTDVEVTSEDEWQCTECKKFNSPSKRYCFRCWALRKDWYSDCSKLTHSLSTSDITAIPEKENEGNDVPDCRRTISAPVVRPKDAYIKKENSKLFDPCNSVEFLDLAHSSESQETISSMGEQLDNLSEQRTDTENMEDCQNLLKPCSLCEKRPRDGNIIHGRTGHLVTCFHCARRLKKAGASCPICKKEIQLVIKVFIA

[7] = target: GST-Mcl-1; assay: fluorescence polarization assay, Mcl-1 against Bcl-xL
[8] = target: GST-Mcl-1; assay: fluorescence polarization assay, labeled peptide on GST-Mcl-1
[9] = target: GST-Bcl-xL; assay: fluorescence polarization assay, labeled peptide on GST-Bcl-xL
[10] = target: T2, GST-MDMX containing full-length human …; assay: competition ELISA, against linear peptide 3
[11] = target: T1, GST-MDM2 containing full-length human …; assay: competition ELISA; reference not named in the sentence (peptide 1 or PDI)

T1 sequence (Q00987 whole entry): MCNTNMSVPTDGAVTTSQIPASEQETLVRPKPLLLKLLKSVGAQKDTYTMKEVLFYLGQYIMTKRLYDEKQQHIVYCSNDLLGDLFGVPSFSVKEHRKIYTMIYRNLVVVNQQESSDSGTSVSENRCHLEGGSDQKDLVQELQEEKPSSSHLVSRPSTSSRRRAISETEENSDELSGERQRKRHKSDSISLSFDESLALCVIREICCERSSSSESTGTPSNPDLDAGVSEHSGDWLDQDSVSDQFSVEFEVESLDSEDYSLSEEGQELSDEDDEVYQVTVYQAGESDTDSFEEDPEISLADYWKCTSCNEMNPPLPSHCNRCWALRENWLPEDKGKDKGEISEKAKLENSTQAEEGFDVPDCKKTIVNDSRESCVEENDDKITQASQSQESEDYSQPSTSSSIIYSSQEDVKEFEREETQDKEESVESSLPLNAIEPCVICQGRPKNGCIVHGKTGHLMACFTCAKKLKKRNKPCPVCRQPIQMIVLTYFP
Chain of GST-Mcl-1 (Q07820 whole entry): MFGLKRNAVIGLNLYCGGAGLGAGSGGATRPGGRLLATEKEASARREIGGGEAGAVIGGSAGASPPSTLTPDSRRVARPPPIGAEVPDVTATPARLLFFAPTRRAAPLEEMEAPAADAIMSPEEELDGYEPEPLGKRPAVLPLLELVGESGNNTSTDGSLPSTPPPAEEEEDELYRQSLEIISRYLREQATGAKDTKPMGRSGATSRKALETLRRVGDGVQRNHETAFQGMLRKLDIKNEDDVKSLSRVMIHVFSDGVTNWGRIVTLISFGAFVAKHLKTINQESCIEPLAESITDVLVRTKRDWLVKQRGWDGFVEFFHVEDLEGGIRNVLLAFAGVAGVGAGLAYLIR
Chain of GST-Bcl-xL (Q07817 whole entry): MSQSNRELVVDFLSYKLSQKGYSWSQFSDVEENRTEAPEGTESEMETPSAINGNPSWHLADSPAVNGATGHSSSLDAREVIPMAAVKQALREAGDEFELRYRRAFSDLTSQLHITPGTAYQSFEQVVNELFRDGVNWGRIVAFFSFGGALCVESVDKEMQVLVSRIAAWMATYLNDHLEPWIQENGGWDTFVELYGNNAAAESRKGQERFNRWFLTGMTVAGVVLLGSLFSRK

- fold increase in activity [1]: 67 fold
- IC50 [2]: 75 nM
- IC50 [3]: 18 nM
B1: Cross-linked Noxa peptide 5a (Bph, L,L-cysteines at 77/84) (peptide)
peptide: AAXLRRIGDXVNLRQKLLN
modifications: Cys 3 and Cys 10 of the peptide (NoxaB 77 and 84) cross-linked by Bph; N-terminal acetyl; C-terminal amide

- IC50 [2]: 25 nM
- fold improvement over the parent peptide [4]: 14 fold
- IC50 [3]: 45 nM
B2: Cross-linked Noxa peptide 5b (Bpy, L,L-cysteines at 77/84) (peptide)
peptide: AAXLRRIGDXVNLRQKLLN
modifications: Cys 3 and Cys 10 of the peptide (NoxaB 77 and 84) cross-linked by Bpy; N-terminal acetyl; C-terminal amide

- IC50 [5]: 39 nM
- IC50 [6]: 4810 nM
B3: PDI analog 1a (Bph cross-linked L,L-dicysteine peptide) (peptide)
peptide: Ac-LTFCHYWAQLCS-NH2
modifications: linker 4-11 via Biphenyl(4,4'-CH2)2
notes: Printed as LTFC'HYWAQLC'S (C' = Bph-linked cysteine)

- fold selectivity for Mcl-1 over Bcl-xL [7]: > 2000 fold
- Kd [8]: 0.7 nM
- Kd [9]: > 2000 nM
B4: Fluorescein-labeled cross-linked Noxa peptide 6a (peptide)
peptide: AAXLRRIGDXVNLRQKLLN
modifications: N-terminal FITC-Ahx; D-cysteine at position 3; D-Cys 3 and L-Cys 10 cross-linked by Bph; C-terminal amide
notes: also called Fl-6a; Fluo-6a

- fold increase in MDMX activity [10]: 24 fold
- IC50 [5]: 5.4 nM
- IC50 [6]: 14 nM
B5: PDI analog 3b (Bpy cross-linked D,L-dicysteine peptide) (peptide)
peptide: Ac-LTF[dC]HYWAQLCS-NH2
modifications: linker 4-11 via CH2(3,3'-bipyridine-6,6')CH2
SMILES: CC(=O)N[C@@H](CC(C)C)C(=O)N[C@H](C(=O)N[C@@H](Cc1ccccc1)C(=O)N[C@@H]1CSCc2ccc(cn2)-c2ccc(nc2)CSC[C@@H](C(=O)N[C@@H](CO)C(N)=O)NC(=O)[C@H](CC(C)C)NC(=O)[C@H](CCC(N)=O)NC(=O)[C@H](C)NC(=O)[C@H](Cc2c[nH]c3ccccc23)NC(=O)[C@H](Cc2ccc(O)cc2)NC(=O)[C@H](Cc2c[nH]cn2)NC1=O)[C@@H](C)O
notes: Printed as LTFc"HYWAQLC"S

- IC50 [5]: 35 nM
- IC50 [6]: 890 nM
B6: PDI analog 1b (Bpy cross-linked L,L-dicysteine peptide) (peptide)
peptide: Ac-LTFCHYWAQLCS-NH2
modifications: linker 4-11 via CH2(3,3'-bipyridine-6,6')CH2
SMILES: CC(=O)N[C@@H](CC(C)C)C(=O)N[C@H](C(=O)N[C@@H](Cc1ccccc1)C(=O)N[C@H]1CSCc2ccc(cn2)-c2ccc(nc2)CSC[C@@H](C(=O)N[C@@H](CO)C(N)=O)NC(=O)[C@H](CC(C)C)NC(=O)[C@H](CCC(N)=O)NC(=O)[C@H](C)NC(=O)[C@H](Cc2c[nH]c3ccccc23)NC(=O)[C@H](Cc2ccc(O)cc2)NC(=O)[C@H](Cc2c[nH]cn2)NC1=O)[C@@H](C)O
notes: Printed as LTFC"HYWAQLC"S (C" = Bpy-linked cysteine)

- IC50 [5]: 208 nM
- IC50 [6]: 4490 nM
Binder: Ac-LTF[dC]RYWARLCS-NH2 (linker 4-11 via Biphenyl(4,4'-CH2)2, Printed as LTFc'RYWARLC'S) [PDI analog 4a (Bph cross-linked D,L-dicysteine peptide, two arginines)]

- IC50 [5]: 244 nM
- IC50 [6]: 5520 nM
Binder: Ac-LTFCRYWARLCS-NH2 (linker 4-11 via Biphenyl(4,4'-CH2)2, Printed as LTFC'RYWARLC'S) [PDI analog 2a (Bph cross-linked, two arginines)]

- IC50 [6]: 1150 nM
B7: PDI analog 4b (Bpy cross-linked D,L-dicysteine peptide, two arginines) (peptide)
peptide: Ac-LTF[dC]RYWARLCS-NH2
modifications: linker 4-11 via CH2(3,3'-bipyridine-6,6')CH2
SMILES: CC(=O)N[C@@H](CC(C)C)C(=O)N[C@H](C(=O)N[C@@H](Cc1ccccc1)C(=O)N[C@@H]1CSCc2ccc(cn2)-c2ccc(nc2)CSC[C@@H](C(=O)N[C@@H](CO)C(N)=O)NC(=O)[C@H](CC(C)C)NC(=O)[C@H](CCCNC(=N)N)NC(=O)[C@H](C)NC(=O)[C@H](Cc2c[nH]c3ccccc23)NC(=O)[C@H](Cc2ccc(O)cc2)NC(=O)[C@H](CCCNC(=N)N)NC1=O)[C@@H](C)O
notes: Printed as LTFc"RYWARLC"S

- IC50 [2]: 140 nM
- IC50 [3]: 140 nM
B8: Cross-linked Noxa peptide 6b (Bpy, D-Cys 77 / L-Cys 84) (peptide)
peptide: AAXLRRIGDXVNLRQKLLN
modifications: D-cysteine at position 3; D-Cys 3 and L-Cys 10 cross-linked by Bpy; N-terminal acetyl; C-terminal amide

- fold increase in activity [1]: 37 fold
- IC50 [2]: 260 nM
- IC50 [3]: 73 nM
B9: Cross-linked Noxa peptide 6a (Bph, D-Cys 77 / L-Cys 84) (peptide)
peptide: AAXLRRIGDXVNLRQKLLN
modifications: D-cysteine at position 3; D-Cys 3 and L-Cys 10 cross-linked by Bph; N-terminal acetyl; C-terminal amide

- IC50 [3]: 230 nM
B10: Cross-linked Noxa peptide 8a (Bph, alpha-methyl-L-cysteines at 77/84) (peptide)
peptide: AAXLRRIGDXVNLRQKLLN
modifications: alpha-methyl-L-cysteine at positions 3 and 10, cross-linked by Bph; N-terminal acetyl; C-terminal amide

- fold selectivity for Mcl-1 over Bcl-xL [7]: > 2000 fold
- Kd [8]: 0.8 nM
- Kd [9]: > 2000 nM
Binder: AAXLRRIGDXVNLRQKLLN (N-terminal FITC-Ahx; Cys 3 and Cys 10 cross-linked by Bph; C-terminal amide, also called Fl-5a; Fluo-5a) [Fluorescein-labeled cross-linked Noxa peptide 5a]

- IC50 [5]: 57 nM
- IC50 [6]: 1850 nM
Binder: Ac-LTFCHYWAQLCS-NH2 (cysteine pairing not given here, not cross-linked; also called peptide 1) [PDI analog 1 (linear L,L-dicysteine peptide)]

- fold increase in MDMX activity [10]: 15 fold
- IC50 [5]: 8.3 nM
- IC50 [6]: 22 nM
B11: PDI analog 3a (Bph cross-linked D,L-dicysteine peptide) (peptide)
peptide: Ac-LTF[dC]HYWAQLCS-NH2
modifications: linker 4-11 via Biphenyl(4,4'-CH2)2
SMILES: CC(=O)N[C@@H](CC(C)C)C(=O)N[C@H](C(=O)N[C@@H](Cc1ccccc1)C(=O)N[C@@H]1CSCc2ccc(cc2)-c2ccc(cc2)CSC[C@@H](C(=O)N[C@@H](CO)C(N)=O)NC(=O)[C@H](CC(C)C)NC(=O)[C@H](CCC(N)=O)NC(=O)[C@H](C)NC(=O)[C@H](Cc2c[nH]c3ccccc23)NC(=O)[C@H](Cc2ccc(O)cc2)NC(=O)[C@H](Cc2c[nH]cn2)NC1=O)[C@@H](C)O
notes: Printed as LTFc'HYWAQLC'S

- IC50 [2]: 37 nM
- IC50 [3]: 32 nM
B12: Cross-linked Noxa peptide 7a (Bph, L,L-cysteines at 80/87) (peptide)
peptide: Ac-AAQLRCIGDKVNCRQKLLN-NH2
modifications: linker 6-13 via Biphenyl(4,4'-CH2)2
SMILES: CC[C@H](C)[C@@H]1NC(=O)[C@@H](NC(=O)[C@H](CCCNC(=N)N)NC(=O)[C@H](CC(C)C)NC(=O)[C@H](CCC(N)=O)NC(=O)[C@H](C)NC(=O)[C@H](C)NC(C)=O)CSCc2ccc(cc2)-c2ccc(cc2)CSC[C@@H](C(=O)N[C@@H](CCCNC(=N)N)C(=O)N[C@@H](CCC(N)=O)C(=O)N[C@@H](CCCCN)C(=O)N[C@@H](CC(C)C)C(=O)N[C@@H](CC(C)C)C(=O)N[C@@H](CC(N)=O)C(N)=O)NC(=O)[C@H](CC(N)=O)NC(=O)[C@H](C(C)C)NC(=O)[C@H](CCCCN)NC(=O)[C@H](CC(=O)O)NC(=O)CNC1=O
notes: Printed as AAQLRC'IGDKVNC'RQKLLN

- IC50 [6]: 1520 nM
B13: PDI analog 2b (Bpy cross-linked, two arginines) (peptide)
peptide: Ac-LTFCRYWARLCS-NH2
modifications: linker 4-11 via CH2(3,3'-bipyridine-6,6')CH2
SMILES: CC(=O)N[C@@H](CC(C)C)C(=O)N[C@H](C(=O)N[C@@H](Cc1ccccc1)C(=O)N[C@H]1CSCc2ccc(cn2)-c2ccc(nc2)CSC[C@@H](C(=O)N[C@@H](CO)C(N)=O)NC(=O)[C@H](CC(C)C)NC(=O)[C@H](CCCNC(=N)N)NC(=O)[C@H](C)NC(=O)[C@H](Cc2c[nH]c3ccccc23)NC(=O)[C@H](Cc2ccc(O)cc2)NC(=O)[C@H](CCCNC(=N)N)NC1=O)[C@@H](C)O
notes: Printed as LTFC"RYWARLC"S

- fold increase in MDM2 activity [11]: > 3 fold
- IC50 [5]: 13 nM
- IC50 [6]: 339 nM
B14: PDI analog 3 (linear (D,L)-dicysteine peptide) (peptide)
peptide: LTF[dC]HYWAQLCS-NH2
modifications: not fully specified (N-terminus); printed as LTFcHYWAQLCS; cysteine pairing not given here
notes: not cross-linked; also called peptide 3
